{"source": "patent US20070276019A1", "about": "“Haloalkyl Containing Compounds as Cysteine Protease Inhibitors” (Axys Pharmaceuticals, Inc., priority 2003, published 2007)", "origin": "cited, not measured here", "conditions": "clinical trials"}
{"substance": "OKT3: murine monoclonal antibody directed towards CD-3 domain of activated T-cells", "values": [{"measurement": "patients administered OKT3 that produce antibodies versus the therapy", "value": "20-40%"}]}
